# Reference: the nanobody polyreactivity screen of Harvey et al. (2022)
# Test: yeast display, Sf9 membrane polyspecificity reagent, FACS + sequencing; frameworks hold sequencing errors
# How it was run: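 Nanobodies from a synthetic yeast display library (Saccharomyces cerevisiae BJ5465), induced 36–48 hours with galactose, were stained 1 hour at 4 °C with 10% biotinylated, detergent-solubilized Sf9 membrane reagent, enriched on streptavidin microbeads, then FACS-sorted. Anti-HA (expression) and streptavidin (reagent binding) fluorescence set low and high (top ~1%) gates. Polyreactivity labels come from the gate of origin. Genes were colony-PCR amplified, MiSeq 2 × 250 sequenced and filtered by CDR length.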
row,Sequence,polyreactivity (PSR sort gate)
1,QVQLVESGGGLVHAGGSLRLSCAASGFTFEYNAMGWYRQAPGKERELVAVITYRGGSTYYADSVKGRFTISRDNAKHTVYLQMNSLKPEDTAVYYCAADSVTYGGDYWGQGTQVTVSS,high polyreactivity
2,QVHLVESGGGLVQAGGSLRISCAASGRTFYIYAMGWYRQAPGKERELVAAISWGSGSTYYADSVKGRFTISRDNAKNTVYLQMNSLKPEDTAVYYCAADYAYPSEWTYDYWGQGTQVTVSS,low polyreactivity
3,QVQLVESGGGLVQAGGSLRLSCAASGSIFEWYAMGWYRLAPGKERELVAVFSVRGGSTYYADSVKGRFTMSRENAKNTVYLQMNSLKPEDTAVYYCAADRVAPYYGHKRFYSGGQGTQVTVSS,high polyreactivity
4,QVQLVESGGGLVQAGGSLRLSCAASGRIFAWNDMGWYRQAPGKERELLPLFWSGGSTYYADSVKGRFTIARDNAKNTGYLQRNSLKPEDTAVYYCNKDSPPITPYDYWGQGTQVTVSS,low polyreactivity
5,QVQLVESGGGLVQAGGSLRLSCAASGSIFGGYGMGWYRQAPGKERQLVAAITSGSSTYYADSVKGRFTISRDNAKNTVYLQMNSLKPEDTAVYYCAARPYPHSAYQGDYWGRGTQVTVSS,low polyreactivity
6,QVQLVESGGGLVQAGGSLRLSCAASGSIFSSYAMGWYRQAPGKERELVAAITRTGGRTYYADSVKGRFTISRDNAKNTVYLQMNSLKPEDTAVYYCAAKQVSRGVAAYDYWGQGTQVTVSS,high polyreactivity
7,KVQLVESGGGLVQAGGSLRLSCAASGSILSPNAMGWYRQAPGKERELVAAINSGGGSTYYADSVKGRFTLSRDNAKNTVYLQMNSLKPEDTAVYYCAADHYYYRSRAYTYIIYDYWGQGTQVTVSS,low polyreactivity
8,QVQLVETGGGLVQAGGSLRLSCAAYGSIFIGYAMGWYRQAPGKERELVAAISNSGGRTYYADSVKGRFTISRDNAKNTVYLQMNSLKPEDTEVYYCNVDYRIPYRMDYWGQGTQVTVSS,high polyreactivity
9,QVQLVESGGGLVQAGGSLRLSCAASGITFRNYAMGWYRQAPGKEREFVAAIRWGGGSTYYEDSGKGRFTISLDNAKNTVYLQMNSLKPEDTAVYYCATRGYSRNNPYSRPYDYWGQGTQVTVSS,high polyreactivity
10,QVQLVESGGGLVQAGGSLRLSCAASGRTFKTYTMGWYRQEPGKERELVAVISSGGGSTNYADSVKGRFTISRDNAKNTVYLQMNSLKPEDTAVYYCAARKTGRPKYRYDYWGQGTQVTVSS,low polyreactivity
11,QVQLVESGGGLVQAGGSLRLSCADSGSTFNSYAMGWYRQAPGKERELVAAITHRGSTYYADSVKGRFTISLDNAKNTVYLQMNSLKPEDTAVDYCNVRRIGNGRRVDYWGQGTQVTVSS,high polyreactivity
12,QVQIVESGGGLVQAGGSLRLSCAASGFTFRGYAMGCYRQAPAKERELVAAISRSGGSTNYADSVKGRFTISRDNAKNTVYLKMNSMKPEDTAVYYCAAGWNPYDYWGQGTQVTVSS,high polyreactivity
13,QVQLVESGGGLVQAGGSLRLSCAASGSIIQYYAMGWYRQAPGKERELVASITWSGGSTYYADSVKGRFTISRDNAKNTVFLQMNSLKPEDTAVYYCAKRLYLKTWAASTADDYWGQGTQVTVSS,low polyreactivity
14,QVQLVESGGGLVQAGGSLRLSCAASGLTFQLYTMGWYRQAPGKERELVAAISRSGTRTYYADSVKGRFTISRDNAQNTVYLQMNSLKPEDTAVYYCAARTDGYRNNYWGQATQVTVSS,high polyreactivity
15,QVQLVESGGGLVQAGGSLRLSCAASGRSFGNYVMGWYRQAPGKERELVAAISRSGGSTYYADSVKGRFTISRDNAKNIVYLQMNSLKPEDTAVYYCNTVTTYDVEYWGQGTQVTVSS,high polyreactivity
16,QVQLVESGGGLVQAGGSLRLSCAASGRTFWVYAMGWYRQAPGKERELVASISWSVGSTYYADSVKGRFTISRDNAKNTVYLQMNSLKPEDTAVYYCNKTTLLTVEYDYWGQGSQVTVSS,low polyreactivity
17,QVQLVESGGGLVQAGGSLRLSCAASGRTFSYYAMGWYRQAPGKERELVAAITSRGSSTYYADSVKGRFTISRDNAKNTVYLQMNSLKPEDTAVYYCAKVRPYLDTNEYYYWGQGTQVTVSS,high polyreactivity
18,QVQLVESGGGLVQAGGSLRLSCAASVIIISYYAIGWYRQAPGKERELVAAITRGGGRTYYADSVKGRFTISRDNAKNTVYLQMNSLKPEDTAVYYCKALSRYVENDYWGQGTQVTVSS,high polyreactivity
19,QVQLVESGGGLVQPGGSLRLSCAASGSTFEYNAMGWYRQAPGKERELVASSTNYADSVKGRFTISRDNAKNTVYLQMNSLKPEDTAVYYCAREQGVNRNHDYWGQGTQVTVSS,low polyreactivity
20,QVQLVESGGGLVQAGGSLRLSCAASGSIFRRNAMGWYRQAPGKEREFVAAITWIGGSTYYADSVKGRFTISRDNAKNTVYLQMNSLKPEDTAVYYCAAKYRTYPSNYYYWGQGTQVTVSS,high polyreactivity
21,QVQLVESGGGLVQAGGSLRLSCAASGSIFYGYDMGWYRQAPGKERELVATISWSSGSSTYYADSVKGRFTISRDNAKNTVYLQMNSLKPEYTAVYYCAVDFAIGYRYLGRVDYWGQGTQVTVSS,low polyreactivity
22,QVHLVESGGGLVQAGGSLRLSCAASGSNFKGNAMGWYRQAPGKERELVAAINRSGTSTYYADSVKGRFTISRDNAKKTVYLQMNSLKPEDTAVYYCAKKYFGHRFDYWGQGTQVTVSS,high polyreactivity

row,Sequence,polyreactivity (PSR sort gate)
1,QVQLVESGGGLVQAGGSLRLSCAASGLTFYRYAMGWYRQAPGKERELVAAIRSNVVTTYYADSVKGRFTISRDNAKNTVYLQMNSLKPEDTAVYYCNAVSYSFPIHRVRPTWYDYWGQGTQVTVSS,high polyreactivity
2,QVQLVESGGGLVQAGGSLRLSCAASGRIFGKYAMGWYRQAPGKERELVAAIRITGGSTYYADSVKGRFTISRDNAKNTVYLQMNSLKPEDTAVYYCAAVYKYADVIYDYWGQGTQVTVSS,high polyreactivity
3,QVPLVESGGGLVQAGGSLRLSCAASGSIFQLYAMGWYRQAPGKEREFVAAITRSGGRTYYADSVKGRFTISRDNAKNTVYIQMNSLKPEDTAVYYCAADWVRNVYYRGYDYWGQGPQVTVSS,high polyreactivity
4,QVQLVESGGGLVQAGGSLRLSCAASGRIFYGYTMGWYRQAPGKERELVAAITQRGGNTHYADSVKGRFTISRDNGKNTVYLHMNRLKPEDTAVYYCAAKYYPYVRGVQYYYWGQGTQVTVSS,high polyreactivity
5,QVQLVESGGGLVQAGGSLRLSCAASGIIFPWYAMGWYRPAPGKERELVAAISGSGGSTYYADSVKGRFTISRDNAKNTVYLQMNSLKPEDTAVYYCAAYPRGSQRYNYGGQGTQVTVSS,high polyreactivity
6,QVQLVESGGGLVQAGGSLRLSCAASGSTFLYYAMGWYREAPGKERELVAVISWSGVSTYYADSVKGRFTISRDNAKNTVYLQMKSLKPEDTAVYYCNTGNHYIRTYGYWGQGTQVTVSS,low polyreactivity
7,QVQLVESGGGLVQAGGSLRLSCAASGFIFSTNAKGWYSQAPGKERELVATIRSGVSTYYADSVKGRFTISRDNAKNTVYLQMNSLKPEDTAVYYCNVDDTSRTTSGGRFGQVESDYWGQGTQVTVSS,low polyreactivity
8,QVQHVDSGAGLVQAGGSLRLRCSASGLILKDYAMGWSIQPPGKERELVAAISTSAGTTYYADSVKGRFTISRDNAKNTVYLQMKSQKPEETAVYYCAAGYLPYYIRYYHPVTVDYDYWGQGTQVTVSS,low polyreactivity
9,QVQLVESGGGLVQAGGSLRLSCASSGSTFDINAMGWYTQAPGKARELVAAITCGGGTNYADSVKGRFTISRDNAKNTVYLEMNSLKPEDTAVYYCAAVYYSTDYYFWYDYWGQGTQVTVSS,low polyreactivity
10,QVQLVESGGGLVQAGGSLRLSCAASGFTSSQYAMGWYRQAPGKERELVAAITSSGSSTYYADSVKGRFTISRDNAKNTVYLQMNSLKPEDTAVYYCNTDAYHRYPGSVWYYYWGQGTQVTVSS,high polyreactivity
11,QVQLVESGGGLVQAGGSLRLSCAASGAIFYYYAMGWYRQAPGKERELVATITASGGSTFYADSVKGRFTISRDNAKNTVYLQMNSLKPEDTAVYYCAATVYYTYWGQGTQVTVSS,low polyreactivity
12,QVQLVESGGGLVQAGGSLRLSCAASGSTFLTYAMGWYRQAPGKERELLAASTRSTSTYADSVKGRFTISRDNAKNTVYFQMNSLKPEDTAVYYCNVDSYFRWWYDEWGQGTQVTVSS,high polyreactivity
13,QVQLVESGGGLVQAGGSLRLSCAASGFNFIKYAMGWSRQSPGKESELVAAISFRGGRTYYADSVKGRITISRDNAKNTVYLQMNSLKPEDTAVYYCAAETRDYSEGYYWGQGTQVTVSS,high polyreactivity
14,QVQRVESGGGLVQAGGSLRLSCAASGSTLRKYVMGWYRQAPGKERELVAAISSSGGRTYYADSVKGRFTISRDNAKYTVYLQMNSLKPEDTAVYYCAATRYIPGFYYWGQGTQVTVSS,high polyreactivity
15,QVQLVESGGGLVQAGGSLRLSCAASGFTFDYYAMGRDIPAPGKERELVAAISRAGSTNYADSVKGRFTISRDNAKNTVYLQMNSLKPEDTAVYYCNKGYHSWSRLSQFGWSYDYWGQGTQVTVSS,high polyreactivity
16,QVQLVESGGGLVQAGGSLRLSCAASGSTFAANAMGWYRQAPGKERELVAAITGSGGGTYYADSVKGRFTISRDNAKNTVYLQMNSLKPEDTAVYYCNTYYYWQYDWGQGTQVTVSS,high polyreactivity
17,QVQLVDSGGGLDQAGGSLRLSCSASGIIFRGNAMGWYRQAPGKEREFVAAIALRGSRSYYADSVKGRFTISRDNAKNTVYLQMISLKPEDTAVYYCAARYYSEPNAYYYWGQGTQLTVSS,high polyreactivity
18,QVQHVETGGGLVQAGGSLRLSCAASGFIFAEYAMGWYRQAPGKETEEVAAITSGGSTSYADSVKGRFTISRDNAKNTVYLQMNSLKPEDTAVYYCAATWYYLYNVWKHWYEYGYWGQGTQVTVSS,low polyreactivity
19,QVQLVESGGGLVQAGGSLRLSCAASGSIFDSYAMGWYRQAPGKERELVADITSDGSTHYADSVKGRFTISRDNAKNTVYLQMNSLKAEDTAVYYCAADYFFYWLGVPVVDVYYWGQGTQVTVSS,low polyreactivity
20,QVQLVESGGGLVQAGGSLRLSCAASGLTFNYYDRGWYRQAPGKERELVAAISRSRTNTSYADSVKGRFTISRDNAKNTVYLQMNSLKPEDTAVYYCNAAGVYLAAGPYTANFNYNYWGQGTQVTVSS,low polyreactivity
21,QFQLVESGGGLVQAGGSLRLSCAASGGIFTDYTMGWYRQAPGKERELVAAITWTGGSTYYADSVKGRFTISRDNAKNTVYLQMNILKPEDTAVYYCAADDYWVNLDYWGQGTQVTVSS,low polyreactivity
